Data on 16 sequences can be found in the nanobody polyreactivity screen of Harvey et al. (2022).

This data set in a line: yeast display, Sf9 membrane polyspecificity reagent, FACS + sequencing; frameworks hold sequencing errors. In a few lines: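 Synthetic nanobody libraries on Saccharomyces cerevisiae BJ5465 were galactose-induced for 36–48 hours, stained 1 hour at 4 °C with 10% biotinylated, detergent-solubilized Sf9 membrane reagent and enriched on streptavidin microbeads. FACS then separated cells into low and high (top ~1%) gates by anti-HA (expression) and streptavidin (reagent binding) fluorescence. Genes were colony-PCR amplified, MiSeq 2 × 250 sequenced and CDR-length filtered. A clone's polyreactivity label is that of its gate of origin.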
Turning to “QVQHVESGGGLVQAGGSLRLSCAASGIILGSYAMGWYRQAPGKEMELVAAIRWSRGRTYYADSVKGRFTISRDNAKNTVYLQMNSLKPEDSAVYYCAAANSRRGYDYWGQGTQVTVSS”, the “polyreactivity (PSR sort gate)” value was “high polyreactivity”.

With “QVQHVESGGGLVQAGGSLRLSCAASGITFGRNTMGWYRQAPGKERELVAAIDSGGNTYADSVKGRFTISRDNAKITVYLQMIRQKPEDTAVDSCAVDGGEFSSYGYWGQGTQVTVSS”, the “polyreactivity (PSR sort gate)” value is recorded as “low polyreactivity”.

As to “QVQHVESGGGLVQAGGSLRLSCAASGITFKPNAMGWSRHAPGKERELVAAIDSGGSTNYAYSVKGRFTISLDNAKNTVYLQMNSLKPEDTAVYYCAAPYQDRDLQVSYSTYEGGYWGQGTQVTVSS”, the “polyreactivity (PSR sort gate)” value was “low polyreactivity”.

“QVQHVESGGGLVQAGGSLRLSCAASGITFVLNSMGWSRPAPGKERELVAAIDTSGADTYYADSVKGRFTISRDNAKNTVYLQMNSLKPEDTAVYYCAAETITDDSYEYDYWGQGTQVTVSS”: the “polyreactivity (PSR sort gate)” value was “low polyreactivity”.

Regarding “QVQHVESGGGLVQAGGSLRLSCAASGITFVPNAMGWYRQAHGKERELVAAITSGDSTNYADSVKGRFTISRDNAKNTVYLQMNSLKPEDTAVYYCAADSWAQRPNQGRVSLHYYWGQGTLVTVSS”, the “polyreactivity (PSR sort gate)” value was “low polyreactivity”.

As to “QVQHVESGGGLVQAGGSLRLSCAASGLIFPRYAMGLYRQAPGKERELVAAINWRGGITYYADSVKGRFTISRDNAKNTVYLQMNSLKPEDTAVYYCAAAVKHVAYHYNYWGQGTQVTVSS”, the “polyreactivity (PSR sort gate)” value is reported as “high polyreactivity”.

Regarding “QVQHVESGGGLVQAGGSLRLSCAASGLIFVRYAMGWYRQAPGKERELVATITWSGGTTYADSVKGRFTISRDNAKNTVYLQMNSLKPEDTAVYYCAVEWPAWTDSDYPVGGHAFGYWGQGTQVTVSS”, the “polyreactivity (PSR sort gate)” value is recorded as “low polyreactivity”.

Turning to “QVQHVESGGGLVQAGGSLRLSCAASGLNLYSNAMGCYRQAPGNERELVAAISWIGASTYYADSVKGRFTISRDNAKNTVYLQMNSLKQEDTAVYYCATARYRGYPTYSYARDYCGQGTQVTVSS”, the “polyreactivity (PSR sort gate)” value is reported as “high polyreactivity”.

As for “QVQHVESGGGLVQAGGSLRLSCAASGNIFVAYAMGGYRQAPGKERELVAAITSGGRTYADSVKGRFTISRDNAKNTVYLQMNSLKPEDTAVYYCNADPYYVYLGYYDRYYSGYGYWGQGTQVTVSS”, the “polyreactivity (PSR sort gate)” value is “low polyreactivity”.

With “QVQHVESGGGLVQAGGSLRLSCAASGNSFRYYTMGWYRQAPGKEREFVAAISWSGGRTRYADSVKGRFTISRDNAMITVYLQMNSLKPEDTAVYYCAAYTPSYGGRDYWGQGTQVTVSS”, the “polyreactivity (PSR sort gate)” value is “low polyreactivity”.

For the sequence “QVQHVESGGGLVQAGGSLRLSCAASGPTYKRYAMGWYRQAPGKERELVAAIRQRGGSTYYADSVKGRFTISRDNAKNTVYLQMISLKPEDTAVYYWAKRYVSNSQYEYWGQGTQVTVSS”, the “polyreactivity (PSR sort gate)” value is on record as “high polyreactivity”.

For the sequence “QVQHVESGGGLVQAGGSLRLSCAASGRIFGGNAMGWYRQAPGKERELVAAISIGGGSTNYADSVKGRFTISRDNAKNTFYLQMNSLKPEDTAVYYCAARTRYTSVGKLYSWGQGTQVTVSS”, the “polyreactivity (PSR sort gate)” value is recorded as “high polyreactivity”.

On to “QVQHVESGGGLVQAGGSLRLSCAASGRIFHWYAMGWYRQAPGKERELVAAIRWTGGSTYYADSVKGRFTISRDNAKNTVYLEMNSLKPEDTAVYYCAAKGYTGIFYEMDYWGQGTQVTVSS”, for which the “polyreactivity (PSR sort gate)” value was “low polyreactivity”.

With “QVQHVESGGGLVQAGGSLRLSCAASGRIFRGYAMGWYRQAPGKERELVAVISYSGTRTYYADSVKGRFTISRDNAKNTVYLQMNSLKPEDTAVYYCNARANGFKDGYWGQGTQVTVSS”, the “polyreactivity (PSR sort gate)” value is reported as “high polyreactivity”.

As for “QVQHVESGGGLVQAGGSLRLSCAASGRIFVPYTMGWYRQAPGKERELVAAISRSGGSTYYADSVKGRFTISRDNAKNPVYLQMNSLKPEDTAVYYCAARATNVYSKMDYWGQGTQVTVSS”, the “polyreactivity (PSR sort gate)” value is “high polyreactivity”.

Consider “QVQHVESGGGLVQAGGSLRLSCAASGRIFYRNAMGWYRQAPGKERELVASITSAGRTYYADSVKGRFTISRDNAKNTVYLQMNSLKPEDTAVYYCAVRVAVLLNLYGYWGQGTQVTVSS”, for which the “polyreactivity (PSR sort gate)” value is “low polyreactivity”.
